Data published in US20250009799A1 (Amgen, published 2025).

Biological target: putative cross-reactive peptide arising from SH2D3A, on HLA-A*02:01 of T2 cells (human)
Experiment: cell-based or functional assay

EC50 in T2/peptide TDCC assay, against the DCAF4L2 target peptide: 87 fold
B1: TCR2 (TCR, V domains shown)
V domain 1: EDQVTQSPEALRLQEGESSSLNCSYTVSGLRGLFWYRQDPGKGPEFLFTLYSAGEEKEKERLKATLTKKESFLHITAPKPEDSATYLCAVQAWGGGSQGNLIFGKGTKLSVKP
V domain 2: DSGVTQTPKHLITATGQRVTLRCSPRSGDLSVYWYQQSLDQGLQFLIQYYNGEERAKGNILERFSAQQFPDLHSELNLSSLELGDSALYFCASSAGDRGYEQYFGPGTRLTVTE
